# In the supplement of paper PMC9170038:
# Tested on: K4 kissing-loop RNA reporter
# Experiment: apparent KD of K4 kissing-loop reporter; higher = weaker reporter binding
# Conditions: Eterna round: R107
# Protocol: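 RNA-MaP round R107: designed RNA switches with theophylline, tryptophan, arginine or FMN aptamers are transcribed on-chip within common flanks. They are titrated with a labelled K4 kissing-loop RNA reporter in RNA-MaP buffer (100 mM Tris pH 7.5, 80 mM KCl, 4 mM MgCl2), without ligand or with the indicated ligand. Median apparent KD per design.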
# [1] = input ligand: theophylline 20 uM
# [2] = input ligand: tryptophan 2.4 mM
# 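Further: bound reporter read as fluorescence of individual clusters on recovered sequencing chips by microscopy, with normalized cluster intensities fitted with a binding model.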
Sequence,apparent KD of K4 kissing-loop reporter (input ligand: FMN 200 uM) [nM],apparent KD of K4 kissing-loop reporter (input ligand: arginine 13.2 mM) [nM],apparent KD of K4 kissing-loop reporter (input ligand: none) [nM],apparent KD of K4 kissing-loop reporter [1] [nM],apparent KD of K4 kissing-loop reporter [2] [nM]
GGCCGCAAGGCGAGCGCUCCCACUCCGGAAGGAGCGCCCGGAAGGGCAGGUAGGUCGCCGGAGUGAUGUUCCGGUGGAGGGCUCG [#2 Exclusion - Arginine A Attempt #18 (Inspired by Omei)],435,319,417,772,469
UGAUACCAGACUGAUACCAGCAAGUGAUGUUUGUUGAUCAAAAGCAGUCAAAGACUGCUUUGCCCUUGGCAGCAGUCUGGUAUCU [#10 K4 Theophylline B Exclusion],167,148,166,276,141
AGAGAUAUAUGAGGAUAUGAGUUAGUUAAUGAGUUAGUUUUAGUGUUGUUUGGUUAGUGAUGUUAUUUAGAAGGCGUGAGUGAUG [cxfsmullin],89.7,66.4,67.7,96.9,60.8
AAAGGAUCAGAGAGUGAUGUUCUCUAAUAACGAGGACCGGUACGGCCGCCACUCGAAUAGAUCCAAGUCCUACGAAAAGUAGGAC [Omei inspired 8],274,217,316,308,210
UGUGUACCGGGAAGGAGCGUGAAUGAGAAUGGAUAUAGUGAUGUUAUGUAUACGAACGAAUCGCAGGUAGGUCGCCCGGAUCCCU [SSArgB.Z],513,320,677,396,461
GAUCUGAACGAAAGUUCGGAUCAGUCCGAUACCAGUAUGGAUUCAUACCCUUGGCAGCGGUUAUCUGCUAUGGAGUGAUGUUCCA [Theophylline A K4 11],502,344,483,321,348
CAUACGCAUGGAGGAUAUGAGAUUUUUCAUAUUAUUUUUUAUUCUCAGUGAUGUUGGGAUUUAUAAUCAGAAGGCCAUGUGUAUG [Ex FMN B 11],88.4,79.2,84.9,94.7,88.9
GUGCGCGGUGCGGCCGCCACUCGGAUGCGAGUGAUGUUCGCGGGACGGACGCAAGUCCGUCAUUCGAGGACCGGGCAUGGCUGUA [#2 Same State - Tryptophan B Attempt #5 (HarryS)],336,274,247,252,169
AUUCCCACUUAAGGAUAUCAAGGAGUGAUGUUCCAAAUGGUCCACGUCGCGGCUCUCCGGGCACAAUGAGAAGGUAAAGCUGGGU [theeternabot_exclusion_KL_FMN_B_43],278,275,276,370,210
UCCACGCUUCGAGGAUAUCGGAUUAGAGUGAUGUUCUAAAGACGCCCAGUGAUGUUGGAUGCGAUACGAGAAGGCGGUGGCGUGU [Same State FMN B GF6],236,195,244,140,176
AAGUGAUGUUGUAGUGAUGUUGUGAUGUUGCAGGAUAUAUAGUGAUGUAGAAGGGUAUGUACUUAUUUGUUUUUUGAGUUAUGUU [zzazzrmullin],65.9,28.5,53.1,41,53.8
UGGACAUGACUCGAUAAGAGUCAAUGGGAUACCAGUGACGAAAGUCACCCUUGGCAGCUCAACUGCCAGUGAUGUUGGUAGUCCA [Astros-Elo-mod#2],231,129,224,134,166
AAUUUUAAUCAUAAAUAAUAAAUAAAUGAUACCAGUAUUUUUUUUUACCCUUGGCAGCGUAUAUAAGGGCAGUGAUGUUGUCAGA [whbob_SS_Theo_A_w60],236,98.8,257,222,164
UGUAAUUCGGCGGCCGCCACUGACCAUAGCCUUCGAUGGCCAGUGAUGUUGGCCUCUGGCUCUAACAGGACCGGGCCGAAUUGCG [Sotetiqu],243,133,178,157,116
UGAUACCAGACGGCCGCCACUACACCAGUCAAAGACUGGAUGUGAAAUUCGACCAGUGAUGUUGGUAGGACCGGGUCUGGUAUCU [TrypBX 8 #SwitchBubble #StaticStem],383,313,379,347,591
ACACUUACACAUGAUACCAGAAUUCUACCGUAAAUAGUAAGUGAUGUUUGCUAACGGCUUUUCCCUUGGCAGCAUGAUCGGUAUU [theeternabot_sameState_KL_Theo_B_43],201,121,178,242,149
AUAAUAUGAGUGAUGUUCAUGAAACCUGAAGGAGCGGACGAAAGUCCAGGUAGGUCGCAGGACUCCUUCAACAUGGGAGAGGGAG [KL-SSArg-A8 #analogue],153,180,166,194,150
GGGAGUAGUGCGGCCGCCACUGUGAAAGUAGAAGAAUAUAGUGAUGUUAUAUAGGAAUAAAAGAAUAGGACCGGGCAUUAGAUUU [SSTRyptB.V],190,215,212,249,168
GCUAGCAAUGCAGGAUAUUAAAACGAGUGAUGUUCGGUACCGAGGAUGGGAAACCAUCCUCGGUAAUAAGAAGGGCAUUGCUAGC,210,182,194,211,172
UCUUUUGGCAUGGAUAGAAUGCCGACCGAUACCAGCAAAGUAGGAUGCCCUUGGCAGCGGAGUGAUGUUCCAUUGUCGCGGUUUG [theeternabot_exclusion_KL_Theo_A_48],82.7,91.3,86.9,84.4,76.9
AACGUUUUGAGAAGGAGCGCGUUAAGCAGUGAUGUUGCUUUAUUUUAUCAAAUACAUAUAUCGCAGGUAGGUCGCUCAAUACGUA [JR_Nu_SSArginiB_Sub026],304,218,253,283,230

Sequence,apparent KD of K4 kissing-loop reporter (input ligand: FMN 200 uM) [nM],apparent KD of K4 kissing-loop reporter (input ligand: arginine 13.2 mM) [nM],apparent KD of K4 kissing-loop reporter (input ligand: none) [nM],apparent KD of K4 kissing-loop reporter [1] [nM],apparent KD of K4 kissing-loop reporter [2] [nM]
UUUCCAGAUAAGUGGGAACGCUCCAUAACAGAGGAUAUCAGAGCGCUGAGAAGGCUGUUUUACAGUGAUGUUGUAAGUGUGGAGC [#10 K4 FMN A Same State],158,272,299,282,252
CCGUAUGUCCACUAUUGAGUGAUGUUCAAGCGAGGACCGGUACGGCCGCCACUCGCGUUACCCACCACGUGUCGCCGCACUUACC [theeternabot_exclusion_KL_Trp_A_42],203,160,203,159,370
CGGAGUCGCGGAAGGAGCGCUCGAUAGACAAGUUGAUCGUGCCGUGGUCGAGUGAUGUUCGAGCAGGUAGGUCGCCGUCGGUCCC [Cexeatedma],252,204,242,229,230
UUUGUAGAGGGAAGGAGCGUGAAAGAGAAAGAAUAUAGUGAUGUUAUAUAGAAGAAAGAAUCACAGGUAGGUCGCCCGGAGGAGG [SSArgB.E],463,436,458,563,295
GGUUUAUAGGAGGAUACCAGUACGGAUAAAGUACGUUAAUAGUAGAGUGAUGUUCUAAAGUACCCUUGGCAGCUUAGAGUGAGUG [ExTheophylB.M],98.6,164,136,182,94.3
UUGGCUGGACGGGAUACCAGCCAAAUCGUGGGCUUGGGAUGUCUAAGAGCCAGUGAUGUUGGCCCUUGGCAGCCCUCCCAGCUUG [Xerirala],104,97.7,95.9,75.5,113
AAUAAAAUCACGGCCGCCACUGAUUUCCGUAUUAGGAGUGAUGUUCCUAUGACUAUAUAAUUUAACAGGACCGGGUGAAUAUUUA [#21 K4 Tryptophan B Exclusion],111,109,110,107,97.8
UCCUGCAGUCUGCCACGAAAGUGGAUUGAUACCAGAGUCGAAAGACUCCCUUGGCAGCGAGUGAUGUUCGAAGCAGGUAAAUAAA [MatMod 1 - Jieux - Exclusion - Theophylline A],160,204,178,221,130
CAGAUGUAGGCGGCCGCCACUCUCAUUACCGUACGCAAGUAUGAUUAGAAGUGAUGUUUCUCGGUGAGGACCGGGCCAUUCCCGA [theeternabot_sameState_KL_Trp_B_27],690,551,670,672,545
GGAUAGGACAGAGGAUAUCUCUGAGGCAAGAAAACUUGUCUCUAAAGAGAUGACUCAGUGAUGUUGGGAGAAGGCUGUCCUAUCG [FmnBX 10 - #SwitchBubble #StaticStem],202,139,141,167,125
CUCCUUGGCUAAGGAUAUCGUAGUGAUGUUAUGGUCUUUGCUAAGACUUCUGAUAUUGAAUUCCGACGAGAAGGUAGAAGGACGG [theeternabot_exclusion_KL_FMN_B_18],817,690,835,745,626
UCCUUUGUUGCCAGUGAUGUUGGACAGGAAGGAGCGGGCAUAAGCCCAGGUAGGUCGCCUGUCAACUUUCUUAUAGCCCGAAGGU [KL-XArg-A19],441,352,368,424,370
GUUGUAUACUGAAGGAGCGAGUAGUGGAAACAUAAACUCAUUGCGAGUGAUGUUCGCAGUACUCAGGUAGGUCGCAGUAAUCGUA [Exclusion Arginine B Gf 10],534,315,566,453,456
CAACGAGUGAUGGUCGUUGACGGCCAUCCCGAGGAUAUGGGAUUUUCCAGAAGGCGGGAUCGCCCGGAGUGAUGUUCCGUGAUUU [Same State FMN A GF 15],73.3,228,150,221,116
UAAGAGGACCACUGCGAGAGUCCUCGAAUACGAGGACCGGUACGGCCGCCACUCGAUAAUUUGUAGUGAUGUUGCAAGUAAGAAU [BrourdMod 7 - Jieux - Same State Tryptophan A],50.3,64.5,42.1,61.9,31.8
CAUACGCAUGGAGGAUAUGAGAUUUCUCAUGUCAUUUAAUAUUCUCAGUGAUGUUGAGAUUUUGGCUCAGAAGGCCAUGUGUAUG [Ex FMN B 19],176,249,281,297,273
AAUUUUAAUAAUAAAUAAUAAAUAAAUGAUACCAGUAUUUUUUUUUACCCUUGGCAGCGUAUAUAAGGGCAGUGAUGUUGUCAAA [whbob_SS_Theo_A_w58],205,136,153,196,169
UUCGAAAGUCGAAGGAGCGCUGUCGGUCAUAGACCAUAUCUGUAGUGAUGUUACAGAUGACAGCAGGUAGGUCGCGACAGAGACA [Arg B SS t18],148,120,127,144,144
GUAUCGCUAGGAGGAUAUUUCAUAUAAUAUAUAAAUGGAUAUACGGAGUGAUGUUCCGAUUUACGGAAAGAAGGCCUAGUGAUAC [FMN B 18],134,183,214,229,202
UAUAGAAACGUCCUAUCAAUAAAAUGGGAAGGAGCGAGGAAGAACUCAGGUAGGUCGCCCAAUAACCUUAGUGAUGUUAAGGAAA [Version 1],126,112,137,156,117
GGAUGCAUAGUAGAUACCAGCAAGCUCGGAUAGUGAUGUUGUUCGCAGUCAUUUCGGUAGUGCCCUUGGCAGCUAGACGCCCGAU [theeternabot_exclusion_KL_Theo_B_36],109,92.7,104,92.3,97.5
